Data from article PMC5426754, “Ezrin interacts with S100A4 via both its N- and C-terminal domains” (PLoS ONE, 2017).
Numbering of substitutions follows the chain as printed. Names and notes keep the numbering of the source.

B1: Fl-C-ERMAD^T567D (fluorescently labeled phosphomimetic C-ERMAD mutant) (domain or fragment, human)
chain: CKRITEAEKNERVQRQLLTLSSELSQARDENKRTHNDIIHNENMRQGRDKYKDLRQIRQGNTKQRIDEFEAL
modifications: fluorescent label on the N-terminal cysteine (Alexa Fluor 568 C5 maleimide by the methods for the C-ERMAD fragments)
notes: cysteine cloned before Lys516, carries the fluorescent label (as for the C-ERMAD); human ezrin C-ERMAD with Thr567Asp; limits are those printed for the parent C-ERMAD (Lys516-Leu586); source: E. coli Rosetta(DE3), purified, fluorescently labeled; not shown: GST, N-terminal, cleaved
B2: Fl-C-ERMAD (fluorescently labeled ezrin C-ERMAD, Cys-Lys516-Leu586) (domain or fragment, human)
chain: B1 chain with D53T
modifications: Alexa Fluor 568 C5 maleimide on the N-terminal cysteine (the same paragraph also calls the peptides fluorescein-conjugated)
notes: cysteine cloned before Lys516, carries the fluorescent label; human ezrin C-ERMAD, Lys516-Leu586; also called fluorescently-labeled C-ERMAD; not shown: GST, N-terminal, cleaved
B3: Ezrin C-ERMAD (Cys-Lys516-Leu586), unlabeled (domain or fragment, human)
chain: B1 chain with D53T
notes: cysteine cloned before Lys516 for fluorescent labeling; human ezrin C-ERMAD, Lys516-Leu586; also called unlabeled C-ERMAD; not shown: GST, N-terminal, cleaved
B4: S100P (natural protein, UniProt P25815 1-95, looked up)
chain: MTELETAMGMIIDVFSRYSGSEGSTQTLTKGELKVLMEKELPGFLQSGKDKDAVDKLLKDLDANGDAQVDFSEFIVFVAAITSACHKYFEKAGLK
B5: S100A4 (metastasin), wild type (natural protein)
chain: not shown

What was measured:
Conditions in all cases: both partners purified
[1] = target: T1, Ezrin N-ERMAD (N-terminal ERM domain, FERM domain, Met1-Lys296) (human, UniProt P15311 1-296); assay: fluorescence polarisation; direct FP; 50 nM fluorescent tracer (Fl-C-ERMAD variants or Fl-NMIIA) titrated with S100 proteins or N-ERMAD; 20 mM HEPES pH 7.5, 150 mM NaCl, 0.1 mM TCEP, 1 mM CaCl2, 0.05% Tween-20; triplicates; quadratic binding equation
[2] = target: B5; assay: as above
[3] = target: B5; assay: fluorescence polarisation; competitive FP; 50 nM Fl-NMIIA complexed with 4 μM S100A4 dimer titrated with ezrin constructs; competition binding equation; triplicates
[4] = target: T1, Ezrin N-ERMAD (N-terminal ERM domain, …); assay: circular dichroism; far-UV CD difference spectra of complexes; 10 mM Tris pH 7.5, 150 mM NaCl, 0.1 mM TCEP, 1 mM CaCl2; 15 μM N-ERMAD + 50 μM S100A4 dimer, 25 μM F2 lobe + 25 μM S100A4 dimer, 25 μM C-ERMAD + 100 μM S100A4 dimer or 30 μM N-ERMAD; BeStSel deconvolution
[5] = target: T1, Ezrin N-ERMAD (N-terminal ERM domain, …); assay: other fluorescence titration; steady-state tryptophan fluorescence; 2 μM ezrin construct titrated with S100 protein; 20 mM HEPES pH 7.5, 150 mM NaCl, 0.5 mM TCEP, 1 mM CaCl2; 25°C; quadratic binding equation
[6] = target: T2, Full-length human ezrin (human, UniProt P15311 1-586); assay: fluorescence polarisation; competitive FP; 50 nM Fl-NMIIA complexed with 4 μM S100A4 dimer titrated with ezrin constructs; competition binding equation; triplicates
[7] = target: T3, Ezrin F2 lobe of the N-ERMAD (Glu87-Glu199) (human, UniProt P15311 87-199); assay: as above
[8] = target: T4, Full-length human ezrin, phosphomimicking mutant T567D (human, UniProt P15311 1-586, Thr567Asp); assay: as above
[9] = target: T1, Ezrin N-ERMAD (N-terminal ERM domain, …); assay: as above
[10] = target: T2, Full-length human ezrin; assay: other fluorescence titration; steady-state tryptophan fluorescence; 2 μM ezrin construct titrated with S100 protein; 20 mM HEPES pH 7.5, 150 mM NaCl, 0.5 mM TCEP, 1 mM CaCl2; 25°C; quadratic binding equation
[11] = target: T3, Ezrin F2 lobe of the N-ERMAD …; assay: as above
[12] = target: T4, Full-length human ezrin, …; assay: as above
[13] = target: T1, Ezrin N-ERMAD (N-terminal ERM domain, …); assay: as above; remark: listed apart in the source
[14] = target: T3, Ezrin F2 lobe of the N-ERMAD …; assay: as above; remark: listed apart in the source
[15] = target: T3, Ezrin F2 lobe of the N-ERMAD …; assay: stopped-flow tryptophan fluorescence kinetics; 1 μM (post-mixing) N-ERMAD or F2 lobe mixed with S100A4 at different concentrations; 20 mM HEPES pH 7.5, 150 mM NaCl, 0.5 mM TCEP, 1 mM CaCl2; 25°C; Kd from amplitudes (quadratic), K1, k2, k-2 from hyperbola of kobs (induced fit)
[16] = target: T1, Ezrin N-ERMAD (N-terminal ERM domain, …); assay: as above

Binder: B1
- binding result [1]: binds
- Kd [2]: 2700 nM

Binder: B2
- Kd [1]: 8.6 ± 0.7 nM
- Kd [2]: 3400 nM

Binder: B3
- Kd [3]: 5300 nM
- binding result [4]: binds

Binder: B4
- Kd [5]: 1700 ± 300 nM

Binder: B5
- Kd [6]: 92100 nM
- Kd [7]: 120 nM
- Kd [8]: 72200 nM
- Kd [9]: 1100 nM
- Kd [10]: 175000 nM
- Kd [11]: < 100 nM
- Kd [12]: 158000 nM
- Kd [13]: 2200 nM
- stoichiometry N [14]: 1 S100A4 dimer per F2 lobe
- Kd [15]: 170 nM
- Kd [16]: 3900 nM
